Test results from patent publication US20210238260A1.

What follows are substances tested against antithrombin III (AT-III), plasma purified human, in complex with unfractionated heparin (UFH) (human) (UniProt P01008) (assay: inhibition of FIXa by AT-III/UFH, pseudo-first-order, residual activity on Mesyl-D-CHG-Gly-Arg-AMC).

Substance | kapp (second-order rate constant for inhibition)
FIXa-Y155F/I251S/R338E/T343R/R403E (from UniProt P00740 47-191; P00740 227-461) (enzyme) | 160000 M⁻¹ s⁻¹
FIXa-Y155F/K228N/I251S/R318Y/R338E/R403E/E410N (from UniProt P00740 47-191; P00740 227-461) (enzyme) | 1300 M⁻¹ s⁻¹
FIXa-Y155F/K247N/N249S/R318Y/R338E/T343R/R403E/E410N (from UniProt P00740 47-191; P00740 227-461) (enzyme) | 8700 M⁻¹ s⁻¹
FIXa-K228N/I251S/R318Y/R338E/R403E/E410N (from UniProt P00740 47-191; P00740 227-461) (enzyme) | 900 M⁻¹ s⁻¹
FIXa-R318Y/R338E/T343R/R403E/E410S (from UniProt P00740 47-191; P00740 227-461) (enzyme) | 9900 M⁻¹ s⁻¹
FIXa-Y155F/K247N/N249S/R318Y/R338E (from UniProt P00740 47-191; P00740 227-461) (enzyme) | 27000 M⁻¹ s⁻¹
FIXa-Y155F/K247N/N249S/R318Y/R338E/T343R/R403E (from UniProt P00740 47-191; P00740 227-461) (enzyme) | 2300 M⁻¹ s⁻¹
FIXa-Y155F/K247N/N249S/R318Y/E410N (from UniProt P00740 47-191; P00740 227-461) (enzyme) | 130000 M⁻¹ s⁻¹
FIXa-Y155F/N260S/R338E/T343R/R403E (from UniProt P00740 47-191; P00740 227-461) (enzyme) | 40000 M⁻¹ s⁻¹
FIXa-R338E/T343R/R403E (from UniProt P00740 47-191; P00740 227-461) (enzyme) | 190000 M⁻¹ s⁻¹
FIXa-R318Y/R338E/T343R/R403E (from UniProt P00740 47-191; P00740 227-461) (enzyme) | 5800 M⁻¹ s⁻¹
FIXa-K247N/N249S/R318Y/R338E/T343R/R403E (from UniProt P00740 47-191; P00740 227-461) (enzyme) | 1700 M⁻¹ s⁻¹
FIXa-Y155F/R318Y/R338E/T343R/E410N (from UniProt P00740 47-191; P00740 227-461) (enzyme) | 780000 M⁻¹ s⁻¹
FIXa-Y155F/K247N/N249S/R318Y/R403E (from UniProt P00740 47-191; P00740 227-461) (enzyme) | 2100 M⁻¹ s⁻¹
FIXa-K247N/N249S/R318Y/R338E/T343R/R403E/E410N (from UniProt P00740 47-191; P00740 227-461) (enzyme) | 9600 M⁻¹ s⁻¹

More lines, now with the values ahead:

kapp (second-order rate constant for inhibition) | Substance
93000 M⁻¹ s⁻¹ | FIXa-Y155F/R338E/T343R/R403E (from UniProt P00740 47-191; P00740 227-461) (enzyme)
5300 M⁻¹ s⁻¹ | FIXa-K228N/K247N/N249S/R318Y/R338E/T343R/R403E/E410N (from UniProt P00740 47-191; P00740 227-461) (enzyme)
55000 M⁻¹ s⁻¹ | FIXa-Y155F/R318Y/T343R/R403E/E410N (from UniProt P00740 47-191; P00740 227-461) (enzyme)
2600 M⁻¹ s⁻¹ | FIXa-Y155F/N260S/R318Y/R338E/T343R/R403E/E410N (from UniProt P00740 47-191; P00740 227-461) (enzyme)
2800 M⁻¹ s⁻¹ | FIXa-Y155F/R318Y/R338E/T343R/R403E (from UniProt P00740 47-191; P00740 227-461) (enzyme)
1.2e+07 M⁻¹ s⁻¹ | FIXa-Y155F/K247N/N249S/R338E/T343R (from UniProt P00740 47-191; P00740 227-461) (enzyme)
220000 M⁻¹ s⁻¹ | FIXa-Y155F/R338E/T343R/R403E/E410S (from UniProt P00740 47-191; P00740 227-461) (enzyme)
86000 M⁻¹ s⁻¹ | FIXa-K247N/N249S/R338E/T343R/R403E/E410N (from UniProt P00740 47-191; P00740 227-461) (enzyme)
2200 M⁻¹ s⁻¹ | FIXa-Y155F/K228N/K247N/N249S/R318Y/R338E/T343R/R403E/E410N (from UniProt P00740 47-191; P00740 227-461) (enzyme)
93000 M⁻¹ s⁻¹ | FIXa-R318Y/T343R/R403E/E410N (from UniProt P00740 47-191; P00740 227-461) (enzyme)
140000 M⁻¹ s⁻¹ | FIXa-Y155F/K247N/N249S/T343R/R403E (from UniProt P00740 47-191; P00740 227-461) (enzyme)
89000 M⁻¹ s⁻¹ | FIXa-Y155F/K247N/N249S/R338E/T343R/R403E/E410N (from UniProt P00740 47-191; P00740 227-461) (enzyme)
2600 M⁻¹ s⁻¹ | FIXa-N260S/R318Y/R338E/T343R/R403E/E410N (from UniProt P00740 47-191; P00740 227-461) (enzyme)
280000 M⁻¹ s⁻¹ | FIXa-Y155F/R338E/T343R/R403E/E410N (from UniProt P00740 47-191; P00740 227-461) (enzyme)
13000 M⁻¹ s⁻¹ | FIXa-Y155F/K247N/N249S/R338E/R403E (from UniProt P00740 47-191; P00740 227-461) (enzyme)
220000 M⁻¹ s⁻¹ | FIXa-Y155F/K247N/N249S/R318Y/R338E/T343R/E410N (from UniProt P00740 47-191; P00740 227-461) (enzyme)

The substances below were run against plasma purified human AT-III (antithrombin III) in complex with unfractionated heparin (human) (UniProt P01008) (assay: residual FIXa activity on Mesyl-D-CHG-Gly-Arg-AMC after timed incubation with AT-III/UFH (0-500 nM AT-III, 1 uM UFH); kapp from K0.5).

Substance | kapp (apparent second-order rate constant for inhibition)
FIXa-R318Y/R338E/T343R/N346D/R403E/E410N (from UniProt P00740 47-191; P00740 227-461) (enzyme) | 5100 M⁻¹ s⁻¹
FIXa-R318Y/R338E/Y345A/R403E/E410N (from UniProt P00740 47-191; P00740 227-461) (enzyme) | 7900 M⁻¹ s⁻¹
FIXa-Y155F/K247N/N249S/R318Y/R338E/R403E (from UniProt P00740 47-191; P00740 227-461) (enzyme) | 810 M⁻¹ s⁻¹
FIXa-Y155F/K247N/N249S/R338E/R403E/E410N (from UniProt P00740 47-191; P00740 227-461) (enzyme) | 42000 M⁻¹ s⁻¹
FIXa-Y155F/K247N/N249S/N260S/R318Y/R338E/R403E/E410N (from UniProt P00740 47-191; P00740 227-461) (enzyme) | 430 M⁻¹ s⁻¹
FIXa-T343R/N346Y (from UniProt P00740 47-191; P00740 227-461) (enzyme) | 4.2e+06 M⁻¹ s⁻¹
FIXa-Y155F/N260S/R318Y/R338E/R403E/E410N (from UniProt P00740 47-191; P00740 227-461) (enzyme) | 2100 M⁻¹ s⁻¹
FIXa-Y155F/R318Y/R338E/T343R/R403E/E410N (from UniProt P00740 47-191; P00740 227-461) (enzyme) | 8600 M⁻¹ s⁻¹
FIXa-R318Y/R338E/R403E/E410N/T412V (from UniProt P00740 47-191; P00740 227-461) (enzyme) | 2900 M⁻¹ s⁻¹

Second part, the substance after the results:

kapp (apparent second-order rate constant for inhibition) | Substance
1.7e+06 M⁻¹ s⁻¹ | FIXa-D104N/K106S/K247N/N249S/N260S (from UniProt P00740 47-191; P00740 227-461) (enzyme)
11000 M⁻¹ s⁻¹ | FIXa-R318Y/R338E/T343R/N346Y/R403E/E410N (from UniProt P00740 47-191; P00740 227-461) (enzyme)
1100 M⁻¹ s⁻¹ | FIXa-K228N/K247N/N249S/R318Y/R338E/R403E/E410N (from UniProt P00740 47-191; P00740 227-461) (enzyme)
1600 M⁻¹ s⁻¹ | FIXa-R318Y/R338E/R403E/T412A (from UniProt P00740 47-191; P00740 227-461) (enzyme)
680 M⁻¹ s⁻¹ | FIXa-D104N/K106S/K228N/K247N/N249S/R318Y/R338E/R403E/E410N (from UniProt P00740 47-191; P00740 227-461) (enzyme)
7300 M⁻¹ s⁻¹ | FIXa-Y155F/K247N/N249S/R318Y/R403E/E410N (from UniProt P00740 47-191; P00740 227-461) (enzyme)
2700 M⁻¹ s⁻¹ | FIXa-K247N/N249S/R318Y/R403E/E410N (from UniProt P00740 47-191; P00740 227-461) (enzyme)
1300 M⁻¹ s⁻¹ | FIXa-K247N/N249S/N260S/R318Y/R338E/R403E/E410N (from UniProt P00740 47-191; P00740 227-461) (enzyme)
310 M⁻¹ s⁻¹ | FIXa-K247N/N249S/R318Y/R338E/R403E (from UniProt P00740 47-191; P00740 227-461) (enzyme)
2800 M⁻¹ s⁻¹ | FIXa-R318Y/R338E/N346Y/R403E/E410N (from UniProt P00740 47-191; P00740 227-461) (enzyme)
2100 M⁻¹ s⁻¹ | FIXa-D104N/K106S/N260S/R318Y/R338E/R403E/E410N (from UniProt P00740 47-191; P00740 227-461) (enzyme)
350000 M⁻¹ s⁻¹ | FIXa-R318Y/R338E/T412A (from UniProt P00740 47-191; P00740 227-461) (enzyme)
3800 M⁻¹ s⁻¹ | FIXa-R318Y/R338E/R403E/E410N/T412A (from UniProt P00740 47-191; P00740 227-461) (enzyme)
